Reference: patent US20140087995A1 (published 2014)
Numbered stars: 1 amine (or outer) side, 2 acyl side, 3 side chain; on linkers, the order of the positions; unused ones are H or OH. Bridge positions count the residues as written; N and C are the ends. Side chains are listed from the residue outwards. Ends that are not written are not given here. * marks the point of attachment. C20 diacid = O=C(O)CCCCCCCCCCCCCCCCCCC(=O)*; γGlu = O=C(O)[C@H](CCC(=O)[*:2])N[*:1]

T1: human calcitonin receptor (human, UniProt P30988 25-474)
T1 construct: whole, on cells; also called hCTR; hCT
T1 sequence (looked up): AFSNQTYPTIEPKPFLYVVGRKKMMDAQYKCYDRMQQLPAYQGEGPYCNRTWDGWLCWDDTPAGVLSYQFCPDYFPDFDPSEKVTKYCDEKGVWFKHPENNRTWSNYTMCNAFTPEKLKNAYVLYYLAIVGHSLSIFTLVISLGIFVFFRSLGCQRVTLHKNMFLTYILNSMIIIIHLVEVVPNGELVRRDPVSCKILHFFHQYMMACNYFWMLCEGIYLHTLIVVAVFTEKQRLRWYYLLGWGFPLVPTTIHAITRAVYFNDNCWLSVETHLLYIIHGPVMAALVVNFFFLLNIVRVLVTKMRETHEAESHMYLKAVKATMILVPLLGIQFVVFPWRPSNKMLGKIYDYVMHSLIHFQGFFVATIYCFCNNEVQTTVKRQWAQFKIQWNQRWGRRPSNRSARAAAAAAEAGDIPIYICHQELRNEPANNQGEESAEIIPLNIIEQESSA

B1: N^ε1-[(4S)-4-carboxy-4-(19-carboxynonadecanoylamino)butanoyl]-[His14,Arg17,Pro21,Pro27,Arg34]-h-amylin (peptide)
peptide: K([γGlu-C20 diacid])CNTATCATQRLAHFLRHSSPNFGAIPSSTNVGRNTY-NH2
modifications: disulfide 2-7; N-terminus assumed
SMILES: CC[C@H](C)[C@H](NC(=O)[C@H](C)NC(=O)CNC(=O)[C@H](Cc1ccccc1)NC(=O)[C@H](CC(N)=O)NC(=O)[C@@H]1CCCN1C(=O)[C@H](CO)NC(=O)[C@H](CO)NC(=O)[C@H](Cc1c[nH]cn1)NC(=O)[C@H](CCCNC(=N)N)NC(=O)[C@H](CC(C)C)NC(=O)[C@H](Cc1ccccc1)NC(=O)[C@H](Cc1c[nH]cn1)NC(=O)[C@H](C)NC(=O)[C@H](CC(C)C)NC(=O)[C@H](CCCNC(=N)N)NC(=O)[C@H](CCC(N)=O)NC(=O)[C@@H](NC(=O)[C@H](C)NC(=O)[C@@H]1CSSC[C@H](NC(=O)[C@@H](N)CCCCNC(=O)CC[C@H](NC(=O)CCCCCCCCCCCCCCCCCCC(=O)O)C(=O)O)C(=O)N[C@@H](CC(N)=O)C(=O)N[C@@H]([C@@H](C)O)C(=O)N[C@@H](C)C(=O)N[C@@H]([C@@H](C)O)C(=O)N1)[C@@H](C)O)C(=O)N1CCC[C@H]1C(=O)N[C@@H](CO)C(=O)N[C@@H](CO)C(=O)N[C@H](C(=O)N[C@@H](CC(N)=O)C(=O)N[C@H](C(=O)NCC(=O)N[C@@H](CCCNC(=N)N)C(=O)N[C@@H](CC(N)=O)C(=O)N[C@H](C(=O)N[C@@H](Cc1ccc(O)cc1)C(N)=O)[C@@H](C)O)C(C)C)[C@@H](C)O
notes: also called compound 85
B2: N^ε1-[(4S)-4-carboxy-4-[[(4S)-4-carboxy-4-(19-carboxynonadecanoylamino)butanoyl]amino]butanoyl]-[Asp14,Arg17,Pro21,Pro27,Pro34,Glu35]-h-amylin (peptide)
peptide: K([γGlu-γGlu-C20 diacid])CNTATCATQRLADFLRHSSPNFGAIPSSTNVGPETY-NH2
modifications: disulfide 2-7; N-terminus assumed
SMILES: CC[C@H](C)[C@H](NC(=O)[C@H](C)NC(=O)CNC(=O)[C@H](Cc1ccccc1)NC(=O)[C@H](CC(N)=O)NC(=O)[C@@H]1CCCN1C(=O)[C@H](CO)NC(=O)[C@H](CO)NC(=O)[C@H](Cc1c[nH]cn1)NC(=O)[C@H](CCCNC(=N)N)NC(=O)[C@H](CC(C)C)NC(=O)[C@H](Cc1ccccc1)NC(=O)[C@H](CC(=O)O)NC(=O)[C@H](C)NC(=O)[C@H](CC(C)C)NC(=O)[C@H](CCCNC(=N)N)NC(=O)[C@H](CCC(N)=O)NC(=O)[C@@H](NC(=O)[C@H](C)NC(=O)[C@@H]1CSSC[C@H](NC(=O)[C@@H](N)CCCCNC(=O)CC[C@H](NC(=O)CC[C@H](NC(=O)CCCCCCCCCCCCCCCCCCC(=O)O)C(=O)O)C(=O)O)C(=O)N[C@@H](CC(N)=O)C(=O)N[C@@H]([C@@H](C)O)C(=O)N[C@@H](C)C(=O)N[C@@H]([C@@H](C)O)C(=O)N1)[C@@H](C)O)C(=O)N1CCC[C@H]1C(=O)N[C@@H](CO)C(=O)N[C@@H](CO)C(=O)N[C@H](C(=O)N[C@@H](CC(N)=O)C(=O)N[C@H](C(=O)NCC(=O)N1CCC[C@H]1C(=O)N[C@@H](CCC(=O)O)C(=O)N[C@H](C(=O)N[C@@H](Cc1ccc(O)cc1)C(N)=O)[C@@H](C)O)C(C)C)[C@@H](C)O
B3: N^ε1-[(4S)-4-carboxy-4-(19-carboxynonadecanoylamino)butanoyl]-[His14,Arg17,Pro21,Pro27]-h-amylin (peptide)
peptide: K([γGlu-C20 diacid])CNTATCATQRLAHFLRHSSPNFGAIPSSTNVGSNTY-NH2
modifications: disulfide 2-7; N-terminus assumed
SMILES: CC[C@H](C)[C@H](NC(=O)[C@H](C)NC(=O)CNC(=O)[C@H](Cc1ccccc1)NC(=O)[C@H](CC(N)=O)NC(=O)[C@@H]1CCCN1C(=O)[C@H](CO)NC(=O)[C@H](CO)NC(=O)[C@H](Cc1c[nH]cn1)NC(=O)[C@H](CCCNC(=N)N)NC(=O)[C@H](CC(C)C)NC(=O)[C@H](Cc1ccccc1)NC(=O)[C@H](Cc1c[nH]cn1)NC(=O)[C@H](C)NC(=O)[C@H](CC(C)C)NC(=O)[C@H](CCCNC(=N)N)NC(=O)[C@H](CCC(N)=O)NC(=O)[C@@H](NC(=O)[C@H](C)NC(=O)[C@@H]1CSSC[C@H](NC(=O)[C@@H](N)CCCCNC(=O)CC[C@H](NC(=O)CCCCCCCCCCCCCCCCCCC(=O)O)C(=O)O)C(=O)N[C@@H](CC(N)=O)C(=O)N[C@@H]([C@@H](C)O)C(=O)N[C@@H](C)C(=O)N[C@@H]([C@@H](C)O)C(=O)N1)[C@@H](C)O)C(=O)N1CCC[C@H]1C(=O)N[C@@H](CO)C(=O)N[C@@H](CO)C(=O)N[C@H](C(=O)N[C@@H](CC(N)=O)C(=O)N[C@H](C(=O)NCC(=O)N[C@@H](CO)C(=O)N[C@@H](CC(N)=O)C(=O)N[C@H](C(=O)N[C@@H](Cc1ccc(O)cc1)C(N)=O)[C@@H](C)O)C(C)C)[C@@H](C)O
notes: also called compound 70
B4: N^ε1-[(4S)-4-carboxy-4-[[(4S)-4-carboxy-4-(19-carboxynonadecanoylamino)butanoyl]amino]butanoyl]-[Arg17,Pro21,Pro27,Pro31,Pro34,Arg35]-h-amylin (peptide)
peptide: K([γGlu-γGlu-C20 diacid])CNTATCATQRLANFLRHSSPNFGAIPSSTPVGPRTY-NH2
modifications: disulfide 2-7; N-terminus assumed
SMILES: CC[C@H](C)[C@H](NC(=O)[C@H](C)NC(=O)CNC(=O)[C@H](Cc1ccccc1)NC(=O)[C@H](CC(N)=O)NC(=O)[C@@H]1CCCN1C(=O)[C@H](CO)NC(=O)[C@H](CO)NC(=O)[C@H](Cc1c[nH]cn1)NC(=O)[C@H](CCCNC(=N)N)NC(=O)[C@H](CC(C)C)NC(=O)[C@H](Cc1ccccc1)NC(=O)[C@H](CC(N)=O)NC(=O)[C@H](C)NC(=O)[C@H](CC(C)C)NC(=O)[C@H](CCCNC(=N)N)NC(=O)[C@H](CCC(N)=O)NC(=O)[C@@H](NC(=O)[C@H](C)NC(=O)[C@@H]1CSSC[C@H](NC(=O)[C@@H](N)CCCCNC(=O)CC[C@H](NC(=O)CC[C@H](NC(=O)CCCCCCCCCCCCCCCCCCC(=O)O)C(=O)O)C(=O)O)C(=O)N[C@@H](CC(N)=O)C(=O)N[C@@H]([C@@H](C)O)C(=O)N[C@@H](C)C(=O)N[C@@H]([C@@H](C)O)C(=O)N1)[C@@H](C)O)C(=O)N1CCC[C@H]1C(=O)N[C@@H](CO)C(=O)N[C@@H](CO)C(=O)N[C@H](C(=O)N1CCC[C@H]1C(=O)N[C@H](C(=O)NCC(=O)N1CCC[C@H]1C(=O)N[C@@H](CCCNC(=N)N)C(=O)N[C@H](C(=O)N[C@@H](Cc1ccc(O)cc1)C(N)=O)[C@@H](C)O)C(C)C)[C@@H](C)O
B5: N^ε1-[(4S)-4-carboxy-4-(19-carboxynonadecanoylamino)butanoyl]-[His14,Arg17,Pro21,Pro27,Pro31,Pro34]-h-amylin (peptide)
peptide: K([γGlu-C20 diacid])CNTATCATQRLAHFLRHSSPNFGAIPSSTPVGPNTY-NH2
modifications: disulfide 2-7; N-terminus assumed
SMILES: CC[C@H](C)[C@H](NC(=O)[C@H](C)NC(=O)CNC(=O)[C@H](Cc1ccccc1)NC(=O)[C@H](CC(N)=O)NC(=O)[C@@H]1CCCN1C(=O)[C@H](CO)NC(=O)[C@H](CO)NC(=O)[C@H](Cc1c[nH]cn1)NC(=O)[C@H](CCCNC(=N)N)NC(=O)[C@H](CC(C)C)NC(=O)[C@H](Cc1ccccc1)NC(=O)[C@H](Cc1c[nH]cn1)NC(=O)[C@H](C)NC(=O)[C@H](CC(C)C)NC(=O)[C@H](CCCNC(=N)N)NC(=O)[C@H](CCC(N)=O)NC(=O)[C@@H](NC(=O)[C@H](C)NC(=O)[C@@H]1CSSC[C@H](NC(=O)[C@@H](N)CCCCNC(=O)CC[C@H](NC(=O)CCCCCCCCCCCCCCCCCCC(=O)O)C(=O)O)C(=O)N[C@@H](CC(N)=O)C(=O)N[C@@H]([C@@H](C)O)C(=O)N[C@@H](C)C(=O)N[C@@H]([C@@H](C)O)C(=O)N1)[C@@H](C)O)C(=O)N1CCC[C@H]1C(=O)N[C@@H](CO)C(=O)N[C@@H](CO)C(=O)N[C@H](C(=O)N1CCC[C@H]1C(=O)N[C@H](C(=O)NCC(=O)N1CCC[C@H]1C(=O)N[C@@H](CC(N)=O)C(=O)N[C@H](C(=O)N[C@@H](Cc1ccc(O)cc1)C(N)=O)[C@@H](C)O)C(C)C)[C@@H](C)O
B6: N^ε1-[(4S)-4-carboxy-4-(19-carboxynonadecanoylamino)butanoyl]-[His14,Arg17,Pro21,Pro27,His34]-h-amylin (peptide)
peptide: K([γGlu-C20 diacid])CNTATCATQRLAHFLRHSSPNFGAIPSSTNVGHNTY-NH2
modifications: disulfide 2-7; N-terminus assumed
SMILES: CC[C@H](C)[C@H](NC(=O)[C@H](C)NC(=O)CNC(=O)[C@H](Cc1ccccc1)NC(=O)[C@H](CC(N)=O)NC(=O)[C@@H]1CCCN1C(=O)[C@H](CO)NC(=O)[C@H](CO)NC(=O)[C@H](Cc1c[nH]cn1)NC(=O)[C@H](CCCNC(=N)N)NC(=O)[C@H](CC(C)C)NC(=O)[C@H](Cc1ccccc1)NC(=O)[C@H](Cc1c[nH]cn1)NC(=O)[C@H](C)NC(=O)[C@H](CC(C)C)NC(=O)[C@H](CCCNC(=N)N)NC(=O)[C@H](CCC(N)=O)NC(=O)[C@@H](NC(=O)[C@H](C)NC(=O)[C@@H]1CSSC[C@H](NC(=O)[C@@H](N)CCCCNC(=O)CC[C@H](NC(=O)CCCCCCCCCCCCCCCCCCC(=O)O)C(=O)O)C(=O)N[C@@H](CC(N)=O)C(=O)N[C@@H]([C@@H](C)O)C(=O)N[C@@H](C)C(=O)N[C@@H]([C@@H](C)O)C(=O)N1)[C@@H](C)O)C(=O)N1CCC[C@H]1C(=O)N[C@@H](CO)C(=O)N[C@@H](CO)C(=O)N[C@H](C(=O)N[C@@H](CC(N)=O)C(=O)N[C@H](C(=O)NCC(=O)N[C@@H](Cc1c[nH]cn1)C(=O)N[C@@H](CC(N)=O)C(=O)N[C@H](C(=O)N[C@@H](Cc1ccc(O)cc1)C(N)=O)[C@@H](C)O)C(C)C)[C@@H](C)O
notes: also called compound 81

Biological target: T1, human calcitonin receptor
Assay: ratio of IC50 at human calcitonin receptor to IC50 at human amylin receptor (SPA competition assays)
Summary of the method: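 Competition binding by SPA with cell membranes (35 ng/μL) and SPA beads in 50 mM Hepes pH 7.4 with 1 mM CaCl2, 5 mM MgCl2, 0.1% OA and 0.02% Tween20. Incubated 120 min at 25 °C with shaking, then counted.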

Binder	Ratio hCT/hAmylin binding
B1	91.8
B2	49.8
B3	60.8
B4	48.6
B5	24.8
B6	87.2

Biological target: T1, human calcitonin receptor
Assay: SPA radioligand competition (125I-calcitonin), membranes of BHK cells with human calcitonin receptor
Summary of the method: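 BHK hCTR membranes 35 ng/μL + SPA beads 0.05 mg/well; buffer 50 mM Hepes pH 7.4, 1 mM CaCl2, 5 mM MgCl₂, 0.1% OA, 0.02% Tween20. 120 min, 25° C., shaking. Scintillation count; IC50 by one-site binding competition.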

Binder	IC50
B1	80.4 nM
B2	8.56 nM
B3	10.3 nM
B4	42.8 nM
B5	2.04 nM
B6	23.6 nM
